Experimental findings from paper PMC6389498, “Control of Bacterial Virulence through the Peptide Signature of the Habitat” (Cell Reports, 2019) are described below.

Assay [1] has as its target PrfA (recombinant PrfA^WT from E. coli BL21(pET28aprfA^WT), used in the biophysical assays) (Listeria monocytogenes) (UniProt P22262).
Assay [2] shares this target. Briefly: ITC; GE MicroCal iTC200; 100 uM PrfA in the cell, 2 uL of 250 uM peptide injected every 60 s; 50 mM Tris pH 7.5, 500 mM NaCl; one-site model. On the technique in general: In ITC the heat of successive injections is recorded.
Assay [3] has as its target PrfA (full-length PrfA^WT with two non-native N-terminal residues GA after TEV cleavage, used for crystallization) (Listeria monocytogenes) (UniProt P22262). Kind of assay: crystal structure.

Sequence of PrfA (recombinant PrfA^WT from E. coli BL21(pET28aprfA^WT), used in the biophysical assays) (Listeria monocytogenes) (P22262 whole entry): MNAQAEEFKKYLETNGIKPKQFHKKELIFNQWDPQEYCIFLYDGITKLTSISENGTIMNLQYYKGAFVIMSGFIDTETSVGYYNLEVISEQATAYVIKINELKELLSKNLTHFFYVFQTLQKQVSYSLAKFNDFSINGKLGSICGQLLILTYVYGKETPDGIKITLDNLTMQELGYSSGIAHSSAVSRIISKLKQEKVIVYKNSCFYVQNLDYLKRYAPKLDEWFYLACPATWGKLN
Sequence of PrfA (full-length PrfA^WT with two non-native N-terminal residues GA after TEV cleavage, used for crystallization) (P22262 1-237, tags left off): as the sequence (P22262 whole entry) above

In general, Kd refers to the concentration at which binding is half-saturated. LLL peptide (Leu tripeptide): in assay [1], the other is 87%. For the same substance, the Kd in assay [2] came out at 25 µM.
The corresponding values for “LL peptide (Leu dipeptide, L-leucylleucine)” are 93% and 25 µM.
By stoichiometry N is commonly meant the number of molecules, sites or subunits per partner or assembly. Substance “PrfA (full-length PrfA^WT with two non-native N-terminal residues GA after TEV cleavage, used for crystallization) (from UniProt P22262 1-237) (natural protein)” showed a stoichiometry N in assay [3] of 2.
